Article PMC6356861 (ACS Omega, 2019)

Molecular target: the molecule itself
Test: SAXS

B1: simian virus 40 (SV40) major capsid protein VP1, as soluble VP1 pentamers (natural protein)
chain: APTKRKGSCPGAAPKKPKEPVQVPKLVIKGGIEVLGVKTGVDSFTEVECFLNPQMGNPDEHQKGLSKSLAAEKQFTDDSPDKEQLPCYSVARIPLPNINEDLTCGNILMWEAVTVKTEVIGVTAMLNLHSGTQKTHENGAGKPIQGSNFHFFAVGGEPLELQGVLANYRTKYPAQTVTPKNATVDSQQMNTDHKAVLDKDNAYPVECWVPDPSKNENTRYFGTYTGGENVPPVLHITNTATTVLLDEQGVGPLCKADSLYVSAVDICGLFTNTSGTQQWKGLPRYFKITLRKRSVKNPYPISFLLSDLINRRTQRVDGQPMIGMSSQVEEVRVYEDTEELPGDPDMIRYIDEFGQTTTRMQ
B1: binds.
